B1: FCHO1 (parent)
chain: DKLALCHLELTRKLQDLIKDVLRY

Variants of: B1
Test: protein stability index of a GFP-peptide fusion (GPS, HEK-293T) (PSI 1-6); higher = more stable
Details: c terminus: a fixed tail appended
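Note: lentivirally expressed fusions sorted by FACS into six bins by GFP to DsRed ratio, PSI derived from sequencing read proportions per bin multiplied by bin number.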

Variant	protein stability index
DKSALCHLELTRKLQDLIKDVLRY	1.79
DKAALCHLELTRKLQDLIKDVLRY	1.44
DKCALCHLELTRKLQDLIKDVLRY	2.51
DKTALCHLELTRKLQDLIKDVLRY	1.81
DKVALCHLELTRKLQDLIKDVLRY	3.04
DKKALCHLELTRKLQDLIKDVLRY	2.23
DKDALCHLELTRKLQDLIKDVLRY	2.09
DKFALCHLELTRKLQDLIKDVLRY	2.93
DKEALCHLELTRKLQDLIKDVLRY	2.3
DKLALCHFELTRKLQDLIKDVLRY	2.65
DKLALCHWELTRKLQDLIKDVLRY	2
DKLALCHDELTRKLQDLIKDVLRY	2.63
DKLALCHHELTRKLQDLIKDVLRY	3.96
DKLALCHIELTRKLQDLIKDVLRY	1.79
DKLALCHLELTRKLQVLIKDVLRY	2.92
DKLALCHLELTRKLQWLIKDVLRY	2.1
DKLALCHLELTRKLQCLIKDVLRY	3.11
DKLALCHLELTRKLQNLIKDVLRY	3.32
DKLALCHLELTRKLQMLIKDVLRY	2.46
DKLALCHLELTRKLQSLIKDVLRY	2.2
DKLALCHLELTRKLQILIKDVLRY	2.67
EKLALCHLELTRKLQDLIKDVLRY	2.15
YKLALCHLELTRKLQDLIKDVLRY	2.63
TKLALCHLELTRKLQDLIKDVLRY	2.77

Variant	protein stability index
QKLALCHLELTRKLQDLIKDVLRY	4.47
WKLALCHLELTRKLQDLIKDVLRY	1.41
RKLALCHLELTRKLQDLIKDVLRY	3.61
SKLALCHLELTRKLQDLIKDVLRY	2.45
GKLALCHLELTRKLQDLIKDVLRY	5.1
DKLALCHLELTRKLQDLIKDVLRE	3.6
DKLALCHLELTRKLQDLIKDVLRS	1.04
DKLALCHLELTRKLQDLIKDVLRG	2.98
DKLALCHLELTRKLQDLIKDVLRT	2.26
DKLALCHLELTRKLQDLIKDVLRK	2.3
DKLALCHLELTRKLQDLIKDVLRN	2.43
DKLALCHLELTRKLQDLIFDVLRY	1.66
DKLALCHLELTRKLQDLIPDVLRY	2.36
DKLALCHLELTRKLQDLICDVLRY	2.7
DKLALCHLELTRKLQDLIMDVLRY	2.52
DKLALCHLELTRKLQDLISDVLRY	1.71
DKLALCHLELTRKLQDLIADVLRY	1.17
DKLALCHLELTRKLQDLINDVLRY	2.69
DKLALCHLELTRGLQDLIKDVLRY	2.47
DKLALCHLELTRCLQDLIKDVLRY	1.75
DKLALCHLELTRALQDLIKDVLRY	1.46
DKLALCHLELTRMLQDLIKDVLRY	2.21
DKLALCHLELTRYLQDLIKDVLRY	2.74
DKLALCHLELTRTLQDLIKDVLRY	3.29

Variant	protein stability index
DKLALCHLELTRLLQDLIKDVLRY	1.52
DKLALCHLELTRDLQDLIKDVLRY	2.86
DKLALCHLELTRELQDLIKDVLRY	2.19
DKLALCHLELTRPLQDLIKDVLRY	2.54
DKLALCHLELTRNLQDLIKDVLRY	1.8
DKLALCHLELTRKIQDLIKDVLRY	3.06
DKLALCHLELTRKFQDLIKDVLRY	1.12
DKLALCHLELTRKSQDLIKDVLRY	2.13
DKLALCHLELTRKPQDLIKDVLRY	2.99
DKLALCHLELTRKKQDLIKDVLRY	1.95
DKLALCHLELTRKDQDLIKDVLRY	3.23
DKLALCHLELTRKMQDLIKDVLRY	4.05
DKLALCHLELTRKNQDLIKDVLRY	2.33
DKLALCHLELTRKCQDLIKDVLRY	3.78
DKLALCHLELTRKLQDLSKDVLRY	2.6
DKLALCHLELTRKLQDLQKDVLRY	1.73
DKLALCHLELTRKLQDLRKDVLRY	2.76
DKLALCHLELTRKLQDLGKDVLRY	2.33
DKLALCHLELTRKLQDLCKDVLRY	2.17
DKLALCHLELTRKLQDLFKDVLRY	3.1
DKLALCHLELTRKLQDLMKDVLRY	2.05
DKLALCHLELTRKLQDLTKDVLRY	2.02
DKLALCHLELTRKLQDLEKDVLRY	3.6
DKLALCFLELTRKLQDLIKDVLRY	2.4

Variant	protein stability index
DKLALCWLELTRKLQDLIKDVLRY	1.38
DKLALCNLELTRKLQDLIKDVLRY	3.01
DKLALCLLELTRKLQDLIKDVLRY	1.56
DKLALCDLELTRKLQDLIKDVLRY	3.07
DKLALCCLELTRKLQDLIKDVLRY	2.12
DKLALCQLELTRKLQDLIKDVLRY	2.88
DKLALCILELTRKLQDLIKDVLRY	1.49
DKLALCTLELTRKLQDLIKDVLRY	3.2
DKLALCRLELTRKLQDLIKDVLRY	2.93
DKLALCHLELTRKLQDLIKDVDRY	2.32
DKLALCHLELTRKLQDLIKDVKRY	1.65
DKLALCHLELTRKLQDLIKDVNRY	1.47
DKLALCHLELTRKLQDLIKDVPRY	3.16
DKLALCHLELTRKLQDLIKDVARY	2.73
DKLALCHLELTRKLQDLIKDVERY	2.67
DKLALCHLELQRKLQDLIKDVLRY	2.8
DKLALCHLELDRKLQDLIKDVLRY	3.07
DKLALCHLELNRKLQDLIKDVLRY	1.26
DKLALCHLELERKLQDLIKDVLRY	1.27
DKLALCHLELIRKLQDLIKDVLRY	1.69
DKLALCHLELSRKLQDLIKDVLRY	2.25
DKLALCHLELCRKLQDLIKDVLRY	3.34
DKLALCHLELTRKLQDFIKDVLRY	2.42
DKLALCHLELTRKLQDYIKDVLRY	3.59

Variant	protein stability index
DKLALCHLELTRKLQDTIKDVLRY	2.71
DKLALCHLELTRKLQDQIKDVLRY	1.35
DKLALCHLELTRKLQDIIKDVLRY	2.89
DKLALCHLELTRKLQDKIKDVLRY	2.77
DKLALCHLELTRKLQDNIKDVLRY	2.13
DKLALCHLELTRKLQDRIKDVLRY	2.12
DKLALCHLELTHKLQDLIKDVLRY	2.98
DKLALCHLELTDKLQDLIKDVLRY	2.92
DKLALCHLELTQKLQDLIKDVLRY	2.9
DKLALCHLELTNKLQDLIKDVLRY	2.54
DKLALCHLELTSKLQDLIKDVLRY	2.56
DKLALCHLELTVKLQDLIKDVLRY	1.83
DKLALCHLELTMKLQDLIKDVLRY	1.99
DKLALCHLELTIKLQDLIKDVLRY	2.33
DKLALCHLELTGKLQDLIKDVLRY	2.7
DKLALCHLELTPKLQDLIKDVLRY	1.53
DKLALCHLELTYKLQDLIKDVLRY	2.6
DKLALCHLELTCKLQDLIKDVLRY	2.23
DKLCLCHLELTRKLQDLIKDVLRY	2.52
DKLWLCHLELTRKLQDLIKDVLRY	3.22
DKLSLCHLELTRKLQDLIKDVLRY	1.81
DKLPLCHLELTRKLQDLIKDVLRY	2.33
DKLLLCHLELTRKLQDLIKDVLRY	1.98
DKLFLCHLELTRKLQDLIKDVLRY	2.01

Variant	protein stability index
DKLALCHLHLTRKLQDLIKDVLRY	2.19
DKLALCHLLLTRKLQDLIKDVLRY	2.72
DKLALCHLNLTRKLQDLIKDVLRY	5.51
DKLALCHLQLTRKLQDLIKDVLRY	3.2
DKLALCHLYLTRKLQDLIKDVLRY	3.21
DKLALCHLGLTRKLQDLIKDVLRY	2.87
DKLALCHLSLTRKLQDLIKDVLRY	1.77
DKLALCHLILTRKLQDLIKDVLRY	2.67
DKLALCHLPLTRKLQDLIKDVLRY	3.31
DKLALCHLKLTRKLQDLIKDVLRY	3.04
DKLALCHLEPTRKLQDLIKDVLRY	1.69
DKLALCHLEVTRKLQDLIKDVLRY	3
DKLALCHLEYTRKLQDLIKDVLRY	1.76
DKLALCHLEMTRKLQDLIKDVLRY	4.05
DKLALCHLEKTRKLQDLIKDVLRY	1.59
DKLALCHLEETRKLQDLIKDVLRY	2.57
DKLALCHLEATRKLQDLIKDVLRY	2.75
DKLALCHLETTRKLQDLIKDVLRY	2.14
DKLALCHLELTRKLADLIKDVLRY	2.11
DKLALCHLELTRKLIDLIKDVLRY	3.87
DKLALCHLELTRKLPDLIKDVLRY	1.36
DKLALCHLELTRKLCDLIKDVLRY	2.26
DKLALCHLELTRKLLDLIKDVLRY	3.4
DKLALCHLELTRKLDDLIKDVLRY	2.48

Variant	protein stability index
DKLALCHLELTRKLSDLIKDVLRY	4.09
DKLALCHLELTRKLWDLIKDVLRY	2.34
DKLALCHLELTRKLVDLIKDVLRY	1.95
DKLALCHLELTRKLQDLIKVVLRY	2.67
DKLALCHLELTRKLQDLIKIVLRY	2.16
DKLALCHLELTRKLQDLIKCVLRY	1.11
DKLALCHLELTRKLQDLIKGVLRY	3.57
DKLALCHLELTRKLQDLIKFVLRY	1.87
DKLALCHLELTRKLQDLIKWVLRY	2.4
DKLALCHLELTRKLQDLIKNVLRY	4.79
DKLALCHLELTRKLQDLIKMVLRY	1.9
DKLAHCHLELTRKLQDLIKDVLRY	2.98
DKLAPCHLELTRKLQDLIKDVLRY	1.82
DKLASCHLELTRKLQDLIKDVLRY	3.18
DKLATCHLELTRKLQDLIKDVLRY	1.72
DKLAECHLELTRKLQDLIKDVLRY	1.62
DKLALRHLELTRKLQDLIKDVLRY	2.52
DKLALNHLELTRKLQDLIKDVLRY	3.3
DKLALDHLELTRKLQDLIKDVLRY	1.15
DKLALKHLELTRKLQDLIKDVLRY	3
DKLALQHLELTRKLQDLIKDVLRY	3.1
DKLALAHLELTRKLQDLIKDVLRY	2.64
DKLALVHLELTRKLQDLIKDVLRY	2.53
DKLALCHLELTRKLQDLIKDVLDY	2.08

Variant	protein stability index
DKLALCHLELTRKLQDLIKDVLQY	3.15
DKLALCHLELTRKLQDLIKDVLPY	1.2
DKLALCHLELTRKLQDLIKDVLCY	3.57
DALALCHLELTRKLQDLIKDVLRY	1.43
DPLALCHLELTRKLQDLIKDVLRY	1.39
DILALCHLELTRKLQDLIKDVLRY	2.57
DLLALCHLELTRKLQDLIKDVLRY	2.64
DDLALCHLELTRKLQDLIKDVLRY	3.04
DCLALCHLELTRKLQDLIKDVLRY	3.86
DNLALCHLELTRKLQDLIKDVLRY	1.26
DTLALCHLELTRKLQDLIKDVLRY	1.97
DELALCHLELTRKLQDLIKDVLRY	2.28
DKLALCHLELTRKLQDLIKDHLRY	3.97
DKLALCHLELTRKLQDLIKDSLRY	1.83
DKLALCHLELTRKLQDLIKDDLRY	1.43
DKLALCHLELTRKLQDLIKDILRY	2.97
DKLALCHLELTRKLQDLIKDPLRY	2.13
DKLALCHLELTRKLQDLIKDGLRY	2.84
DKLALCHLELTRKLQDLIKDYLRY	2.3
DKLALCHLELTRKLQDLIKDELRY	2.24

Reference: the supplement of paper PMC10567573
